How the values were obtained:
human c-Met ECD (human) = human c-Met ECD (human) (UniProt P08581); assay: SPR (Biacore T100), antibody captured by anti-Fc gamma antibody, c-Met ECD as analyte, 25 C
[1] = biological target: c-Met receptor on OVCAR-8 cells (human) (UniProt P08581); assay: cell-based or functional assay

- Kd (human c-Met ECD (human)): 8.2 nM
- % Internalization of c-Met after 1 hour on OVCAR-8 cells (=100-% antibody on cell surface) [1]: -7%
- % c-Met receptor on OVCAR-8 cell surface measured after 1 hour [1]: 107%
Substance: BsAB02, trivalent bispecific <ErbB-2-c-Met> antibody (full length trastuzumab with one single chain Fab fragment of c-Met 5D5 (humanized) at the C-terminus of the knob heavy chain) (bispecific antibody)

— patent US20100254988A1
